Molecular target: BFIV21FLAG: BFIV21 with the FLAG epitope on the amino terminal end, expressed on RP9 cells (chicken)
Assay: indirect immunofluorescence, flow cytometry on RP9-BFIV21FLAG cells (RP9-BFIV21: 21; RP9: 20)

## FLAG-specific monoclonal antibody M2 (Kodak-IBI) (tool reagent)
  log fluorescent mean channel number (mean log fluorescent channel number): 191

Source: patent US6075125
